The source of these data is US6475775B1, “PARG, a GTPase activating protein which interacts with PTPL1” (Ludwig Institute for Cancer Research, priority 1997, dated 2002).

Test [1] addresses T1, GST-PDZ 4-5 of PTPL1 (Homo sapiens, UniProt Q12923).
T1 construct: GST-PDZ 4-5, residues 1762-1960; made in house; host or cells: E. coli
T1 sequence (Q12923 1762-1960 isoform Q12923-3): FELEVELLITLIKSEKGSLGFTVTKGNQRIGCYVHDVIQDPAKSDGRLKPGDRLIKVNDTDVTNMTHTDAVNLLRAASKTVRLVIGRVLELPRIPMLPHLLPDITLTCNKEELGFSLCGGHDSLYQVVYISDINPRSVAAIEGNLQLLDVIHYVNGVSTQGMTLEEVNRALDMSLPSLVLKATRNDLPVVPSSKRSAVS
Put plainly: Binding of GST-PDZ fusion proteins to C-terminal PARG peptide. To be noted: peptide on Affigel 15 beads; 50 nM fusion protein; 4° C., 2 h; α-GST immunoblot. An excerpt:
(§1) To identify proteins that bind to the PDZ domains of PTPL1, regions of PTPL1 cDNA corresponding to the various PDZ domains were produced by polymerase chain reaction and subcloned into the GST fusion protein expression vector pGEX1λT (Pharmacia): GST-PDZ 1. amino acid residues 1066-1166 of PTPL1; GST-PDZ 2-3. residues 1340-1579; GST-PDZ 3, residues 1469-1579; GST-PDZ 4, residues 1762-1864; GST-PDZ 4-5, residues 1762-1960 and GST-PDZ 5, residues 1856-1960 (FIG. 1A). Domains and motifs indicated in FIG. 1A are: L, leucine zipper motif; Band 4.1, a domain of 300 amino acid residues with homology to the Band 4.1 superfamily; P, PDZ domain; PTP, protein tyrosine phosphatase catalytic domain; GST, glutathione S-transferase. The different expression vector constructs were transformed into E. coli. Glutathione S-transferase (GST) fusion proteins were produced and purified as described by Ridley and Hall (Cell 70: 389-399, 1992) and then subjected to sodium dodecyl sulfate (SDS)-gel electrophoresis.
(§2) It has been shown that PDZ domains interact with the C-terminal ends of short peptides and that a valine residue at the absolute C-terminal end is important for binding (Kim et al., 1995; Komau et al., 1995; Saras et al., in preparation). […]
(In general: In western blotting, separated proteins are transferred to a membrane and probed.)

The target of test [2] is T2, PDZ 4 of PTPL1 (GST-PDZ 4) (Homo sapiens, UniProt Q12923).
T2 construct: GST-PDZ 4, residues 1762-1864; made in house; host or cells: E. coli
T2 sequence (Q12923 1762-1864 isoform Q12923-3): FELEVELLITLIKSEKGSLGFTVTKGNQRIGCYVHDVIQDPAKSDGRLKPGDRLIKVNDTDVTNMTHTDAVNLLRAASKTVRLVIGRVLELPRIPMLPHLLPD
The test is described as above. The settings on record: peptide on Affigel 15 beads; 50 nM fusion protein; 4° C., 2 h; α-GST immunoblot.
Text: as §1, §2

Test [3] addresses T3, Rac (Homo sapiens, UniProt P63000).
T3 construct: GST (N, cleaved yes); made in house; host or cells: E. coli
Kind of test: GAP activity of PARG GAP domain (GTP hydrolysis, filter binding). Type of test: biochemical. To be noted: Rac preloaded with γ-32P-GTP, 30° C. From the text: (§3) In order to determine the GAP activity of PARG on proteins of the Rho family, the GAP domain of PARG was produced as a GST fusion protein in E. coli (FIG. 5A). Briefly, a DNA fragment coding for the GAP domain, i.e., amino acid residues 658-898, of PARG was produced by polymerase chain reaction and subcloned into pGEX1λT and referred to as GST-GAP. pGEX2T-based expression vectors containing RhoA, Rac1 and Cdc42 (G25K isoform) cDNAs were obtained from Dr. A. Hall (MRC Laboratory for Molecular Cell Biology and Department of Biochemistry, University College London, UK). These different expression vector constructs were transformed into E. coli. The GST fusion proteins were produced and purified essentially as described above in Example 1. Recombinant Rho, Rac and Cdc42 proteins were subjected to thrombin cleavage (Ridley and Hall, 1992).
(§4) Recombinant Rho, Rac and Cdc42 were preloaded with γ-^32P-GTP and incubated for various time periods in the presence of the GST-GAP fusion protein or, as control, GST protein. Thereafter, the radioactivity bound to the GTPase was determined as a measurement of the GTP hydrolysis activity. Briefly, 200 nM aliquots of recombinant Rho, Rac and Cdc42 were incubated at 30° C. with 10 μCi γ-^32P-GTP in 20 mM Tris-HCI, pH 7.5, 25 mM NaCl, 4 mM EDTA, 0.1 mM dithiothreitol, and the nucleotide exchange was stopped after 10 min by the addition of 17 mM MgCl2. Proteins (100 nM GST, 1 nM or 20 nM of GST-GAP fusion protein) were added to the reaction mixture and aliquots of 5 μl were withdrawn and collected on nitrocellulose filters (HA, Millipore, Bedford, Mass.) at 3 min intervals. The filters were washed with cold buffer (50 mM Tris-HCI pH 7.5, 50 mM NaCl, 5 mM MgCl2), dried and subjected to scintillation counting. The amount of protein-bound radioactivity is expressed as the percentage of the total input.

Test [4] addresses T4, Rho (Homo sapiens, UniProt P61586).
T4 construct: GST (N, cleaved yes); made in house; host or cells: E. coli
The test is described as above. Type of test: biochemical. To be noted: 1 nM GST-GAP; Rho preloaded with γ-32P-GTP; 30° C.
Text: as §3, §4

In test [5] the target is T5, Cdc42 (Homo sapiens, UniProt P60953).
T5 construct: GST (N, cleaved yes); made in house; host or cells: E. coli
The description is as above. Type of test: biochemical. To be noted: Cdc42 preloaded with γ-32P-GTP, 30° C.
Text: as §3, §4

T5 sequence (P60953 1-191 isoform P60953-1): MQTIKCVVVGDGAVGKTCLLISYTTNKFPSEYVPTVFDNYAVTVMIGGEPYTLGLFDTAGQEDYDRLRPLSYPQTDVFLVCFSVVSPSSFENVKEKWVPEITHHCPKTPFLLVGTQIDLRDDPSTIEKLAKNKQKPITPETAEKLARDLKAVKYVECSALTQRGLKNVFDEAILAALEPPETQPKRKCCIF
T4 sequence (P61586 whole entry): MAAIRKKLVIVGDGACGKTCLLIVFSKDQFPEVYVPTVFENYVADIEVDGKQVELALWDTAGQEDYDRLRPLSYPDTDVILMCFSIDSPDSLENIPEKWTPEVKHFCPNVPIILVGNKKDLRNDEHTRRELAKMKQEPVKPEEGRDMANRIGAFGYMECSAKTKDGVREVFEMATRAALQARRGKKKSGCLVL

In the case of “PQFV (listed as Homo sapiens) [synthetic peptide, last 4 C-terminal amino acid residues of PARG]”, the “binding of GST-PDZ 4-5 to the peptide” value in test [1] is given as “bound”. In addition, in test [2], the “binding of GST-PDZ 4 to the peptide” value is “bound”.

B1: GST-GAP fusion protein: GAP domain, amino acid residues 658-898 of PARG, produced as a GST fusion protein in E. coli (protein)
chain: GHQKLPGKIHLFGAEFTLVAKKEPDGIPFILKICASEIENRALCLQGIYRVCGNKIKTEKLCLALENGMHLVDISEFSSHDICDVLKLYLRQLPEPFILFRLYKEFIDLAKEIQHVNEEQETKKNSLEDKKWPNMCIEINRILLKSKDLLRQLPASNFNSLHFLIVHLKRVVDHAEENKMNSKNLGVIFGPSLIRPRPQTAPITISSLAEYSNQARLVEFLITYSQKIFDGSLQPQDVMCS
modifications: left off: a dimerising Fc or GST
notes: GAP domain, amino acid residues 658-898 of PARG, produced as a GST fusion protein in E. coli
For the molecule B1, the results for the “GAP activity on Rac” value in test [3] (1 nM GST-GAP) and in test [3] (20 nM GST-GAP) were “no GAP activity” and “active”, respectively. Further, the “GAP activity on Rho” value in test [4] was “strong GAP activity”. Further, the “GAP activity on Cdc42” value in test [5] (1 nM GST-GAP) is recorded as “no GAP activity”; in test [5] (20 nM GST-GAP), “active”.
